Target: T1, human ILT4 expressed on HEK293 cells (human, UniProt Q8N423 22-597)
T1 construct: also called LILRB2; LIR2
Assay: bifunctional flow cytometry: bispecific bound to HEK293 cells expressing human ILT4, then human PD-L1-msFc detected with PE anti-mouse IgG Fc
Experimental: Binding of bispecific constructs to ILT4 and PD-L1 was assessed using HEK293 cells expressing human ILT4. In brief, dilutions of the bispecific constructs were allowed to bind to the ILT4 expressing cell before adding human PD-L1-msFc that was detected with PE labeled goat anti-mouse IgG Fc-specific probe.

T1 sequence (Q8N423 other isoform, or with tags, fused parts or gaps limits assumed): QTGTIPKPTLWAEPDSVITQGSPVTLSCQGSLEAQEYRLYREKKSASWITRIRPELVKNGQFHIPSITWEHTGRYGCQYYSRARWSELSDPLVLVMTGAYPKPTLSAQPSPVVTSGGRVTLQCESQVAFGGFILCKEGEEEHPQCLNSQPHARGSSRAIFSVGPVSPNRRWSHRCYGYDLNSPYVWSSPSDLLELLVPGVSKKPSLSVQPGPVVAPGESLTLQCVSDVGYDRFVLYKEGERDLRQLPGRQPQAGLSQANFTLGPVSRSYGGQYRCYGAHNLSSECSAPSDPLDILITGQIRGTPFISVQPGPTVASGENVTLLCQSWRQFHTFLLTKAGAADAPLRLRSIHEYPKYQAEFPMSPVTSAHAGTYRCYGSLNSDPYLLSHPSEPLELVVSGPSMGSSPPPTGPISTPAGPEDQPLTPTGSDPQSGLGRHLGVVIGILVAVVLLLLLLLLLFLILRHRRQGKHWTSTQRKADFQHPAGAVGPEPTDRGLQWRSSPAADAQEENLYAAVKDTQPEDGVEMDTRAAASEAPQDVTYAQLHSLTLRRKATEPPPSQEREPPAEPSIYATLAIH

binding result | Binder
binds | 9H9-7B1 HL (bispecific antibody, human IgG1, kappa, Tetravalent bispecific: anti-PD-L1 9H9 on a mutated human IgG1 (AQQ Fc) with the 7B1 scFv (VH-VL) at the C-terminus of the heavy chain; also called 9H9 AQQ-7B1 H2L1; PD-L1xILT4 bispecific antibody) heavy: not shown light: DIQMTQSPSTLSASVGDRVTITCRASQSISGWLAWYQQKPGKAPKLLIYKASSLESGVPSRFSGSGSGTEFTLTISSLQPDDFATYYCQQYYGSSRTFGQGTNVEIKRTVAAPSVFIFPPSDEQLKSGTASVVCLLNNFYPREAKVQWKVDNALQSGNSQESVTEQDSKDSTYSLSSTLTLSKADYEKHKVYACEVTHQGLSSPVTKSFNRGEC
binds | 9H9-7B1 LH (bispecific antibody, human IgG1, kappa, Tetravalent bispecific as 9H9-7B1 HL, but with the scFv in the VL-VH orientation; also called 9H9 AQQ-7B1 L1H2; PD-L1xILT4 bispecific antibody) heavy: not shown light: DIQMTQSPSTLSASVGDRVTITCRASQSISGWLAWYQQKPGKAPKLLIYKASSLESGVPSRFSGSGSGTEFTLTISSLQPDDFATYYCQQYYGSSRTFGQGTNVEIKRTVAAPSVFIFPPSDEQLKSGTASVVCLLNNFYPREAKVQWKVDNALQSGNSQESVTEQDSKDSTYSLSSTLTLSKADYEKHKVYACEVTHQGLSSPVTKSFNRGEC

— US20240417459A1 (CELLDEX THERAPEUTICS, published 2024)
